Measured values: PMC8489946 (RNA Biology, 2021)

Target: T1, upf1-DE572AA-GFP (S. cerevisiae, UniProt P30771 1-971, DE572AA)
T1 sequence (looked up): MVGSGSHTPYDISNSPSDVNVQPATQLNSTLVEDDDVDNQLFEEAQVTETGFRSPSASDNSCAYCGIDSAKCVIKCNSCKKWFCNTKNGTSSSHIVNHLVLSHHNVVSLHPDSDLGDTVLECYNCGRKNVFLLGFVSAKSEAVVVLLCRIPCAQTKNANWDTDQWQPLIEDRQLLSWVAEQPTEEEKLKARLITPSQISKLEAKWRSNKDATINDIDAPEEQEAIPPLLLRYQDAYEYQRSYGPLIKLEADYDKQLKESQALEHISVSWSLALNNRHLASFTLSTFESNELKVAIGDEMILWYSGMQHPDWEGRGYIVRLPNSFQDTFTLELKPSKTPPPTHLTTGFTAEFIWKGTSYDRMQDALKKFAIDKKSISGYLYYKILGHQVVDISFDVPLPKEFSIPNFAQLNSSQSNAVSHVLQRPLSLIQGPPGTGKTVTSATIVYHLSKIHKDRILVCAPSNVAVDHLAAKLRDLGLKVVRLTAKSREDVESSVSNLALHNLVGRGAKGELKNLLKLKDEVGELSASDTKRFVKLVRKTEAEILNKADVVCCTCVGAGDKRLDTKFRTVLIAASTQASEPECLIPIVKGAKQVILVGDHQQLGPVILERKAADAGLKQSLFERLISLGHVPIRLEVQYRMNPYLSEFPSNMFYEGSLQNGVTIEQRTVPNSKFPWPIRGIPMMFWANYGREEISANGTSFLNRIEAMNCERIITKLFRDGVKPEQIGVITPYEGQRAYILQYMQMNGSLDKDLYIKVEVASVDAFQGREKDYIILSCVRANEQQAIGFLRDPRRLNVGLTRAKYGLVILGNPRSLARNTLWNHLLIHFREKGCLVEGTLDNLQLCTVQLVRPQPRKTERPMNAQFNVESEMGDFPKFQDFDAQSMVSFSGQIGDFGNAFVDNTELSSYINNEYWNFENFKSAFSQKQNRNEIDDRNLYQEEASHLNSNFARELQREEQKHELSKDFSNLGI
Test: co-IP

B1: Gbp2 (natural protein, UniProt P25555 1-427, looked up)
chain: MERELGMYGNDRSRSRSPVRRRLSDDRDRYDDYNDSSSNNGNGSRRQRRDRGSRFNDRYDQSYGGSRYHDDRNWPPRRGGRGRGGSRSFRGGRGGGRGRTLGPIVERDLERQFDATKRNFENSIFVRNLTFDCTPEDLKELFGTVGEVVEADIITSKGHHRGMGTVEFTKNESVQDAISKFDGALFMDRKLMVRQDNPPPEAAKEFSKKATREEIDNGFEVFIINLPYSMNWQSLKDMFKECGHVLRADVELDFNGFSRGFGSVIYPTEDEMIRAIDTFNGMEVEGRVLEVREGRFNKRKNNDRYNQRREDLEDTRGTEPGLAQDAAVHIDETAAKFTEGVNPGGDRNCFIYCSNLPFSTARSDLFDLFGPIGKINNAELKPQENGQPTGVAVVEYENLVDADFCIQKLNNYNYGGCSLQISYARRD
With B1 the “fold co-precipitation relative to wild-type Upf1-GFP” value was greater than 1.5 fold.
